In PMC10613257 (2023):

Target: insulin-like growth factor binding protein 5 (IGFBP5), full length, wild type (UniProt P24593 21-272, labelled with FAM-maleimide, 6-isomer after reduction with TCEP (in the fluorescence polarisation assay))
Assay: FP

Sequence of insulin-like growth factor binding protein 5 (IGFBP5), full length, wild type (P24593 21-272): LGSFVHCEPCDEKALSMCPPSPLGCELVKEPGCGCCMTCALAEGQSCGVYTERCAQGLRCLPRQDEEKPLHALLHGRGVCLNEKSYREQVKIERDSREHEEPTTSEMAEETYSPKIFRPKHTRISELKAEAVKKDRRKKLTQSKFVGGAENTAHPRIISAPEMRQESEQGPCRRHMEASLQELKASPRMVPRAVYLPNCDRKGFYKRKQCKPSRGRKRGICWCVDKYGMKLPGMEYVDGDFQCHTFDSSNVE

- Kd: 237 nM
B1: PAPP-A E483A (catalytically inactive) (enzyme)
chain: REARGATEEPSPPSRALYFSGRGEQLRLRADLELPRDAFTLQVWLRAEGGQRSPAVITGLYDKCSYISRDRGWVVGIHTISDQDNKDPRYFFSLKTDRARQVTTINAHRSYLPGQWVYLAATYDGQFMKLYVNGAQVATSGEQVGGIFSPLTQKCKVLMLGGSALNHNYRGYIEHFSLWKVARTQREILSDMETHGAHTALPQLLLQENWDNVKHAWSPMKDGSSPKVEFSNAHGFLLDTSLEPPLCGQTLCDNTEVIASYNQLSSFRQPKVVRYRVVNLYEDDHKNPTVTREQVDFQHHQLAEAFKQYNISWELDVLEVSNSSLRRRLILANCDISKIGDENCDPECNHTLTGHDGGDCRHLRHPAFVKKQHNGVCDMDCNYERFNFDGGECCDPEITNVTQTCFDPDSPHRAYLDVNELKNILKLDGSTHLNIFFAKSSEEELAGVATWPWDKEALMHLGGIVLNPSFYGMPGHTHTMIHAIGHSLGLYHVFRGISEIQSCSDPCMETEPSFETGDLCNDTNPAPKHKSCGDPGPGNDTCGFHSFFNTPYNNFMSYADDDCTDSFTPNQVARMHCYLDLVYQGWQPSRKPAPVALAPQVLGHTTDSVTLEWFPPIDGHFFERELGSACHLCLEGRILVQYASNASSPMPCSPSGHWSPREAEGHPDVEQPCKSSVRTWSPNSAVNPHTVPPACPEPQGCYLELEFLYPLVPESLTIWVTFVSTDWDSSGAVNDIKLLAVSGKNISLGPQNVFCDVPLTIRLWDVGEEVYGIQIYTLDEHLEIDAAMLTSTADTPLCLQCKPLKYKVVRDPPLQMDVASILHLNRKFVDMDLNLGSVYQYWVITISGTEESEPSPAVTYIHGSGYCGDGIIQKDQGEQCDDMNKINGDGCSLFCRQEVSFNCIDEPSRCYFHDGDGVCEEFEQKTSIKDCGVYTPQGFLDQWASNASVSHQDQQCPGWVIIGQPAASQVCRTKVIDLSEGISQHAWYPCTISYPYSQLAQTTFWLRAYFSQPMVAAAVIVHLVTDGTYYGDQKQETISVQLLDTKDQSHDLGLHVLSCRNNPLIIPVVHDLSQPFYHSQAVRVSFSSPLVAISGVALRSFDNFDPVTLSSCQRGETYSPAEQSCVHFACEKTDCPELAVENASLNCSSSDRYHGAQCTVSCRTGYVLQIRRDDELIKSQTGPSVTVTCTEGKWNKQVACEPVDCSIPDHHQVYAASFSCPEGTTFGSQCSFQCRHPAQLKGNNSLLTCMEDGLWSFPEALCELMCLAPPPVPNADLQTARCRENKHKVGSFCKYKCKPGYHVPGSSRKSKKRAFKTQCTQDGSWQEGACVPVTCDPPPPKFHGLYQCTNGFQFNSECRIKCEDSDASQGLGSNVIHCRKDGTWNGSFHVCQEMQGQCSVPNELNSNLKLQCPDGYAIGSECATSCLDHNSESIILPMNVTVRDIPHWLNPTRVERVVCTAGLKWYPHPALIHCVKGCEPFMGDNYCDAINNRAFCNYDGGDCCTSTVKTKKVTPFPMSCDLQGDCACRDPQAQEHSRKDLRGYSHG
